Patent US20200262877A1, “ION CHANNEL-BINDING PEPTIDES AND METHODS OF USE THEREOF” (priority 2017, published 2020)

Columns and labels:
5HT3a = molecular target: T1, 5HT3a (Homo sapiens, UniProt P46098); test: Ion channel panel (IonWorks Barracuda): 5HT3a; format: cell-based
T1 construct: host or cells: HEK293 or CHO
T1 sequence (P46098 whole entry, looked up): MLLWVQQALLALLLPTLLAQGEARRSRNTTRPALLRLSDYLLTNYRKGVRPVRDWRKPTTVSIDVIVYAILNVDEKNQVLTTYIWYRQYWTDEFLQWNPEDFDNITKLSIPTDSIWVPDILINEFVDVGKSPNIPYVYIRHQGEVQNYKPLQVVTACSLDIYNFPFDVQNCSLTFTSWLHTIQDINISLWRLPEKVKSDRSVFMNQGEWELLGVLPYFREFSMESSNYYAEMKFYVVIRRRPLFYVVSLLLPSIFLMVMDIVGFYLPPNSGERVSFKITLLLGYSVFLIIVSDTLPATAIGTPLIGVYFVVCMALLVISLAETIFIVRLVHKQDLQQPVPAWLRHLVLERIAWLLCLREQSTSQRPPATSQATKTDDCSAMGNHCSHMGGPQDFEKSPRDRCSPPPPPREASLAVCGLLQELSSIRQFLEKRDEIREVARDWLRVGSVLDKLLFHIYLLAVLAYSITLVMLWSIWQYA
Method in brief: (§1)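 Peptides were tested in duplicate at final 20 μM and 200 nM, with concentration set by amino acid analysis, in HEPES-buffered saline. They were applied for at least 5 min to HEK293 or CHO cells transfected with each channel. Currents were expressed as % inhibition, 1-(Ipeptide/Icontrol)×100, or % activation, Ipeptide/Icontrol×100, against a channel-matched reference compound.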

α3β4 = molecular target: T2, α3β4 (Homo sapiens, UniProt P30926+P32297); test: Ion channel panel (IonWorks Barracuda): α3β4; format: cell-based; conditions: 100% = no change, <100% = inhibition
T2 construct: host or cells: HEK293 or CHO
Method in brief: as §1

α4β2 = molecular target: T3, α4β2 (Homo sapiens, UniProt P17787+P43681); test: Ion channel panel (IonWorks Barracuda): α4β2; format: cell-based; conditions: 100% = no change, <100% = inhibition
T3 construct: host or cells: HEK293 or CHO
Method in brief: as §1

Cav2.1 = molecular target: T4, Cav2.1 (Homo sapiens, UniProt O00555); test: cell-based; conditions: 100% = no change, <100% = inhibition
T4 construct: host or cells: HEK293 or CHO
Method in brief: as §1

Cav2.2 = molecular target: T5, Cav2.2 (Homo sapiens, UniProt Q00975); test: cell-based; conditions: 100% = no change, <100% = inhibition
T5 construct: host or cells: HEK293 or CHO
Method in brief: as §1

Kv2.1 = molecular target: T6, Kv2.1 (Homo sapiens, UniProt Q14721); test: cell-based; conditions: 100% = no change, <100% = inhibition
T6 construct: host or cells: HEK293 or CHO
Method in brief: as §1

GABA = test: Ion channel panel (IonWorks Barracuda): GABA; format: cell-based; conditions: 100% = no change, <100% = inhibition
Method in brief: as §1

Nav1.5 = Nav1.5 (Homo sapiens, UniProt Q14524); test: in vitro; conditions: 100% = no change; for Activity of Nav1.5 with peptide, expressed as a percentage of the reference compound: peptide at 0.2 μM; for Activity of Nav1.5 with peptide (percentage of the reference compound): peptide at 20 μM
Sequence of Nav1.5 (Q14524 whole entry): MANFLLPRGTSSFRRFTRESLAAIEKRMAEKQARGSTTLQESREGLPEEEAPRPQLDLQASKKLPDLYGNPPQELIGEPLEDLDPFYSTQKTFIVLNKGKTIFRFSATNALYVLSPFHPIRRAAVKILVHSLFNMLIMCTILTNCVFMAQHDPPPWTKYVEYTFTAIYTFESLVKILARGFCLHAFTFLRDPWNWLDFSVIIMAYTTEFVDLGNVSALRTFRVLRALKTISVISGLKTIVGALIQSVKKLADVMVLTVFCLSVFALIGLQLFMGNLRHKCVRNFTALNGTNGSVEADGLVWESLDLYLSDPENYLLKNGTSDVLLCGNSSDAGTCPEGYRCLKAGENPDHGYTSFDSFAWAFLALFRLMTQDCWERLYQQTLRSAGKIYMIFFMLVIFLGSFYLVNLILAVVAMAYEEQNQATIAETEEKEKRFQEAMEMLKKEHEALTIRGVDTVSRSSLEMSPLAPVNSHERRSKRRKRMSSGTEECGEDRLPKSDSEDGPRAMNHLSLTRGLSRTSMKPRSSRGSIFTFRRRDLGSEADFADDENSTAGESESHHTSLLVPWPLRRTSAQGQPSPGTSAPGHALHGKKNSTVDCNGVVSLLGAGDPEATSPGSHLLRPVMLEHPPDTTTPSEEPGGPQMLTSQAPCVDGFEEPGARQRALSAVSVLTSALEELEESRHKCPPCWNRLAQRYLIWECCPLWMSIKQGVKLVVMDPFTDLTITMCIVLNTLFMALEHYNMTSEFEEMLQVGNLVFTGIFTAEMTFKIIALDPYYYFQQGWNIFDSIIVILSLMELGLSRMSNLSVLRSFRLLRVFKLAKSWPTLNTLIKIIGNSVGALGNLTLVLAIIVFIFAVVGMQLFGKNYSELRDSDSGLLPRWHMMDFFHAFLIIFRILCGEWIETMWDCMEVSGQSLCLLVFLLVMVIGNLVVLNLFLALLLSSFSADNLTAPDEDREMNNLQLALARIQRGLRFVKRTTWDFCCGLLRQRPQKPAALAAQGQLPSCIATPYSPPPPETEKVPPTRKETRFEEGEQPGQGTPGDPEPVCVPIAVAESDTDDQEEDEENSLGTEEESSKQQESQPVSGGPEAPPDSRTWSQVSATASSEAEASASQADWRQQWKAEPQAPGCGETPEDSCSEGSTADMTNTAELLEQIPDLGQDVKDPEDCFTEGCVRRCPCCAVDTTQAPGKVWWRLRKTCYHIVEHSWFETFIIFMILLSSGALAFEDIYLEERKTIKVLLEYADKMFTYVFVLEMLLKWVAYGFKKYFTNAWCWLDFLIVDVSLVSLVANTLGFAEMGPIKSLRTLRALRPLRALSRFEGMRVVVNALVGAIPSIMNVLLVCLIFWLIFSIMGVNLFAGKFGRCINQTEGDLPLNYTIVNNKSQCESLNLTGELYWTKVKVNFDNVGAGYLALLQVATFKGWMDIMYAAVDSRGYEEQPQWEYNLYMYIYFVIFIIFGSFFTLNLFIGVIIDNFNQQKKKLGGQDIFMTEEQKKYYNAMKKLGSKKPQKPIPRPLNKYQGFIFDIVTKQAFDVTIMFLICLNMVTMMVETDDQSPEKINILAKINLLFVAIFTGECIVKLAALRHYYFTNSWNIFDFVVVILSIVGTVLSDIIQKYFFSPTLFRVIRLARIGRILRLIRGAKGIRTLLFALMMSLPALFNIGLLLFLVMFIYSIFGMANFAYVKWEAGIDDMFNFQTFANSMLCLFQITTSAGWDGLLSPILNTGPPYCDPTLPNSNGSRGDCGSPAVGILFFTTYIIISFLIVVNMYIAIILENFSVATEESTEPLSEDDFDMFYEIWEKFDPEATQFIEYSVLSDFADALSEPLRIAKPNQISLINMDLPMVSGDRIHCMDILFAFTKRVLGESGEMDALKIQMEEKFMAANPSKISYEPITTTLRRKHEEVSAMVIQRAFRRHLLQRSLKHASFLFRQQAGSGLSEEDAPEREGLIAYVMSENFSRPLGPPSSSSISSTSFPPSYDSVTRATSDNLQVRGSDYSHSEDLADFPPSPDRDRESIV
Method in brief: as §1

hERG = hERG (Homo sapiens, UniProt Q12809); test: in vitro; conditions: 100% = no change, <100% = inhibition
Method in brief: as §1

Kir2.1 = molecular target: T7, Kir2.1 (Homo sapiens, UniProt P63252); test: Ion channel panel (IonWorks Barracuda): Kir2.1; format: cell-based; conditions: 100% = no change, <100% = inhibition
T7 construct: host or cells: HEK293 or CHO
Method in brief: as §1

Kv1.1 = molecular target: T8, Kv1.1 (Homo sapiens, UniProt Q09470); test: cell-based; format: cell-based; conditions: 100% = no change, <100% = inhibition
T8 construct: host or cells: HEK293 or CHO
Method in brief: as §1

Kv1.2 = molecular target: T9, Kv1.2 (Homo sapiens, UniProt P16389); test: cell-based; format: cell-based; conditions: 100% = no change, <100% = inhibition
T9 construct: host or cells: HEK293 or CHO
Method in brief: as §1

Kv1.3 = molecular target: T10, Kv1.3 (Homo sapiens, UniProt P22001); test: cell-based; format: cell-based; conditions: 100% = no change, <100% = inhibition
T10 construct: host or cells: HEK293 or CHO
Method in brief: as §1

Nav1.7 = molecular target: T11, Nav1.7 (Homo sapiens, UniProt Q15858); test: cell-based; format: cell-based; conditions: 100% = no change; for Activity of Nav1.7 with peptide, expressed as a percentage of the reference compound: peptide at 0.2 μM; for Activity of Nav1.7 with peptide (percentage of the reference compound): peptide at 20 μM
T11 construct: host or cells: HEK293 or CHO
T11 sequence (Q15858 whole entry): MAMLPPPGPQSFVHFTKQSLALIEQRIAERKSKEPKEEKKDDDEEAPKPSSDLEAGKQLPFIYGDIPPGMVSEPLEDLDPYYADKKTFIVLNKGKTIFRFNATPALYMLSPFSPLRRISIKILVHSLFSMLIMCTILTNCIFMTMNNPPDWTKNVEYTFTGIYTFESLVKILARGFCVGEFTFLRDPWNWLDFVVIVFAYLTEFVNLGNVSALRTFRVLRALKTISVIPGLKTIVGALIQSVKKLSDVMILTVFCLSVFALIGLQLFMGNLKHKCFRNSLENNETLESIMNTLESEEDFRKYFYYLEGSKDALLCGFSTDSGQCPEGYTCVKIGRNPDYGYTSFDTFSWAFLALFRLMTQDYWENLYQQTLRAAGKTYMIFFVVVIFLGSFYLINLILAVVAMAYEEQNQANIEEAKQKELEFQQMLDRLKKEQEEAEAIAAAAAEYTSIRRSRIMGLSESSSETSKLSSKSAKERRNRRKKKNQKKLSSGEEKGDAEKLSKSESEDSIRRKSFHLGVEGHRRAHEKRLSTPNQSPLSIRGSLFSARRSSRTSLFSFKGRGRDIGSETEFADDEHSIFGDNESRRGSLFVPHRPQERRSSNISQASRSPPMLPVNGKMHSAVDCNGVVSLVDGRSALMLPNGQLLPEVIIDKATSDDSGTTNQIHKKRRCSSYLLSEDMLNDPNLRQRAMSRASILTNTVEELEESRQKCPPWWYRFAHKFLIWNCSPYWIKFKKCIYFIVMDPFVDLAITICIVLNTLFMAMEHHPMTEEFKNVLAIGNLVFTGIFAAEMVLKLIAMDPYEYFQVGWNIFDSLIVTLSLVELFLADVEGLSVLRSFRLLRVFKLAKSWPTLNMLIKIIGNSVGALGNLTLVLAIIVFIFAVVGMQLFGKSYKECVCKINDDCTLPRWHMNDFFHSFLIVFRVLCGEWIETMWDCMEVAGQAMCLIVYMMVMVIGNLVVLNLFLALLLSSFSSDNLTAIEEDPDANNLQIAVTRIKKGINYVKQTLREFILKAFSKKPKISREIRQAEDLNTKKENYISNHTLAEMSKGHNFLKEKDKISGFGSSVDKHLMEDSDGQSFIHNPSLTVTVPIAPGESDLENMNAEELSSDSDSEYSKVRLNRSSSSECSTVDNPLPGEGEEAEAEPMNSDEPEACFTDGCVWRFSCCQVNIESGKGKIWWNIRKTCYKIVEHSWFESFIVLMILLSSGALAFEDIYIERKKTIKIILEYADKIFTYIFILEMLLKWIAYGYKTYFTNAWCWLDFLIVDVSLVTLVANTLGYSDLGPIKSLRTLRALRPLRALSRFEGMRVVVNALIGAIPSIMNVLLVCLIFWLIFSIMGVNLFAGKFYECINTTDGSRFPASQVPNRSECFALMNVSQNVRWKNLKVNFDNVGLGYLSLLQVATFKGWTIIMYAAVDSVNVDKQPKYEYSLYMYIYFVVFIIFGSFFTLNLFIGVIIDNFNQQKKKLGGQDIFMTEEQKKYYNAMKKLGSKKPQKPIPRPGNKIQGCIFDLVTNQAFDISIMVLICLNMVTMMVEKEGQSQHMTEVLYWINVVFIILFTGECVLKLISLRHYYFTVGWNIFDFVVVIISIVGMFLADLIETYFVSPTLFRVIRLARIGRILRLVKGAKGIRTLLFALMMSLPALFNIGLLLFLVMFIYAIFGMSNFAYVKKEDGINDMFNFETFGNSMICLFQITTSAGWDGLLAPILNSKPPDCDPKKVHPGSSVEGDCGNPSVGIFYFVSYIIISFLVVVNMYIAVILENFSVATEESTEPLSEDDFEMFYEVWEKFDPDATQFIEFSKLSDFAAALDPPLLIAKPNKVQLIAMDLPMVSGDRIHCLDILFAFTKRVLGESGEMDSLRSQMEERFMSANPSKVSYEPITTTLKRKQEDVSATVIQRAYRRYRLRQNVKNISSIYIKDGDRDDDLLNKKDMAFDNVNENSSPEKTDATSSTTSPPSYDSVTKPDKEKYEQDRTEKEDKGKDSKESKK

NR2A = molecular target: T12, NR2A (Homo sapiens, UniProt Q12879); test: Ion channel panel (IonWorks Barracuda): NR2A; format: cell-based; conditions: 100% = no change, <100% = inhibition
T12 construct: host or cells: HEK293 or CHO
Method in brief: as §1

NR2B = molecular target: T13, NR2B (Homo sapiens, UniProt Q13224); test: Ion channel panel (IonWorks Barracuda): NR2B; format: cell-based; conditions: 100% = no change, <100% = inhibition
T13 construct: host or cells: HEK293 or CHO
Method in brief: as §1

TRPA1 = molecular target: T14, TRPA1 (Homo sapiens, UniProt O75762); test: Ion channel panel (IonWorks Barracuda): TRPA1; format: cell-based; conditions: 100% = no change, <100% = inhibition
T14 construct: host or cells: HEK293 or CHO
T14 sequence (O75762 whole entry): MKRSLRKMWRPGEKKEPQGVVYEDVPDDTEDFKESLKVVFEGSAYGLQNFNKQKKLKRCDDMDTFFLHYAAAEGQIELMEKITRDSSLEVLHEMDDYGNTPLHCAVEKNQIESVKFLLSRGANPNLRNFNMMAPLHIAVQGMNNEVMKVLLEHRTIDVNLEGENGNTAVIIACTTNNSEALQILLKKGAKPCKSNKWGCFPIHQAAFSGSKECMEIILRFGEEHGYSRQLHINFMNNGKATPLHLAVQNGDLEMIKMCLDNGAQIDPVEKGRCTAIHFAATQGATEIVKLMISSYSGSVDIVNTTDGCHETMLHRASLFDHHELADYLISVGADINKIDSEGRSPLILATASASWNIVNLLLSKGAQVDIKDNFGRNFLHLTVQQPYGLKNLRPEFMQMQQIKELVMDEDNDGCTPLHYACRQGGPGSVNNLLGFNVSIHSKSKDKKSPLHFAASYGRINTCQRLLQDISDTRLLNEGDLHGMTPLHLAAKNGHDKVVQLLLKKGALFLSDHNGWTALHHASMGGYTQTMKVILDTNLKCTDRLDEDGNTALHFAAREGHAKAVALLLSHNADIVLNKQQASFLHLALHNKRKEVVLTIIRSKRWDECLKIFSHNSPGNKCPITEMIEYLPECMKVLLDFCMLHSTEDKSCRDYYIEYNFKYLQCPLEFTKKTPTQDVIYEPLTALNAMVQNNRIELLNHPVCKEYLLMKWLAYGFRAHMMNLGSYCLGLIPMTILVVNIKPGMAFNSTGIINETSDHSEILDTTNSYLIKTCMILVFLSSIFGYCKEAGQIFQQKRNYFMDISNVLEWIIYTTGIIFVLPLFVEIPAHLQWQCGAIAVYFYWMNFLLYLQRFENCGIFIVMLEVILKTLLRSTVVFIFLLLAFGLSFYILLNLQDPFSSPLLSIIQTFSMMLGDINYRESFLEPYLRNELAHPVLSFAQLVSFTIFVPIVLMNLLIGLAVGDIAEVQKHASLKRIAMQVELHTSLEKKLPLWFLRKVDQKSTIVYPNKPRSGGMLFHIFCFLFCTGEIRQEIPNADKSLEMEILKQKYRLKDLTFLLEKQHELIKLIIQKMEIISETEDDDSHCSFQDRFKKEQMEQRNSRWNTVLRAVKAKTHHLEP
Method in brief: as §1

TRPV1 = molecular target: T15, TRPV1 (Homo sapiens, UniProt Q8NER1); test: Ion channel panel (IonWorks Barracuda): TRPV1; format: cell-based; conditions: 100% = no change, <100% = inhibition
T15 construct: host or cells: HEK293 or CHO
Method in brief: as §1

[1] = first of two Nav1.5 columns (probably TP1)
[2] = second of two Nav1.5 columns (probably TP2)
[3] = first of two Nav1.7 columns (probably TP1)
[4] = second of two Nav1.7 columns (probably TP2)

Substance: 25 (GSACLAEYQKCEGSTVPCCPGLSCSAGRFRKTKLCTK) [compound 25]
- Activity of 5HT3a with peptide (percentage of the reference compound) (5HT3a): 94%
- Activity of 5HT3a with peptide, expressed as a percentage of the reference compound (5HT3a): 82%
- Activity of a3b4 with peptide, expressed as a percentage of the reference compound (α3β4; peptide at 0.2 μM): 105%
- Activity of a3b4 with peptide (percentage of the reference compound) (α3β4; peptide at 20 μM): 91%
- Activity of a4b2 with peptide, expressed as a percentage of the reference compound (α4β2; peptide at 0.2 μM): 73%
- Activity of a4b2 with peptide (percentage of the reference compound) (α4β2; peptide at 20 μM): 75%
- Activity of Cav2.1 with peptide, expressed as a percentage of the reference compound (Cav2.1; peptide at 0.2 μM): 89%
- Activity of Cav2.1 with peptide (percentage of the reference compound) (Cav2.1; peptide at 20 μM): 109%
- Activity of Cav2.2 with peptide, expressed as a percentage of the reference compound (Cav2.2; peptide at 0.2 μM): 111%
- Activity of Cav2.2 with peptide (percentage of the reference compound) (Cav2.2; peptide at 20 μM): 111%
- Activity of Kv2.1 with peptide, expressed as a percentage of the reference compound (Kv2.1; peptide at 0.2 μM): 88%
- Activity of Kv2.1 with peptide (percentage of the reference compound) (Kv2.1; peptide at 20 μM): 107%
- Activity of GABA with peptide, expressed as a percentage of the reference compound (GABA; peptide at 0.2 μM): 111%
- Activity of GABA with peptide (percentage of the reference compound) (GABA; peptide at 20 μM): 98%
- Activity of Nav1.5 with peptide, expressed as a percentage of the reference compound (Nav1.5; [1]): 76%
- Activity of Nav1.5 with peptide, expressed as a percentage of the reference compound (Nav1.5; [2]): 74%
- Activity of Nav1.5 with peptide (percentage of the reference compound) (Nav1.5; [1]): 88%
- Activity of Nav1.5 with peptide (percentage of the reference compound) (Nav1.5; [2]): 87%
- Activity of hERG with peptide, expressed as a percentage of the reference compound (hERG; peptide at 0.2 μM): 76%
- Activity of hERG with peptide (percentage of the reference compound) (hERG; peptide at 20 μM): 79%
- Activity of Kir2.1 with peptide, expressed as a percentage of the reference compound (Kir2.1; peptide at 0.2 μM): 79%
- Activity of Kir2.1 with peptide (percentage of the reference compound) (Kir2.1; peptide at 20 μM): 98%
- Activity of Kv1.1 with peptide, expressed as a percentage of the reference compound (Kv1.1; peptide at 0.2 μM): 69%
- Activity of Kv1.1 with peptide (percentage of the reference compound) (Kv1.1; peptide at 20 μM): 77%
- Activity of Kv1.2 with peptide, expressed as a percentage of the reference compound (Kv1.2; peptide at 0.2 μM): 72%
- Activity of Kv1.2 with peptide (percentage of the reference compound) (Kv1.2; peptide at 20 μM): 85%
- Activity of Kv1.3 with peptide, expressed as a percentage of the reference compound (Kv1.3; peptide at 0.2 μM): 74%
- Activity of Kv1.3 with peptide (percentage of the reference compound) (Kv1.3; peptide at 20 μM): 87%
- Activity of Nav1.7 with peptide, expressed as a percentage of the reference compound (Nav1.7; [3]): 66%
- Activity of Nav1.7 with peptide, expressed as a percentage of the reference compound (Nav1.7; [4]): 54%
- Activity of Nav1.7 with peptide (percentage of the reference compound) (Nav1.7; [3]): 90%
- Activity of Nav1.7 with peptide (percentage of the reference compound) (Nav1.7; [4]): 83%
- Activity of NR2A with peptide, expressed as a percentage of the reference compound (NR2A; peptide at 0.2 μM): 94%
- Activity of NR2A with peptide (percentage of the reference compound) (NR2A; peptide at 20 μM): 106%
- Activity of NR2B with peptide, expressed as a percentage of the reference compound (NR2B; peptide at 0.2 μM): 99%
- Activity of NR2B with peptide (percentage of the reference compound) (NR2B; peptide at 20 μM): 94%
- Activity of TRPA1 with peptide, expressed as a percentage of the reference compound (TRPA1; peptide at 0.2 μM): 124%
- Activity of TRPA1 with peptide (percentage of the reference compound) (TRPA1; peptide at 20 μM): 129%
- Activity of TRPV1 with peptide, expressed as a percentage of the reference compound (TRPV1; peptide at 0.2 μM): 117%
- Activity of TRPV1 with peptide (percentage of the reference compound) (TRPV1; peptide at 20 μM): 113%
